Source: patent US20110002929A1 (Ablynx, published 2011)

T1: human RANK-L (human, UniProt O14788 140-317, limits assumed)
T1 construct: Soluble protein, used coated, biotinylated or labelled in ELISA, AlphaScreen, FMAT and Biacore; also called hRANK-L; soluble human RANK-L
T1 sequence (looked up): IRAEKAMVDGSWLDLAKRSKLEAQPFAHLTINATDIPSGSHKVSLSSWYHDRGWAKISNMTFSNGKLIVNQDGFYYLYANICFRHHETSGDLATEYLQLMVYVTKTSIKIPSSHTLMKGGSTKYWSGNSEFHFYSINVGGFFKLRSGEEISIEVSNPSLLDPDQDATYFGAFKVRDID


Assays:
[1] = biological target: T1, human RANK-L; assay: FMAT, ALEXA647-hRANK-L / RANK on HEK293T cells
[2] = biological target: T1, human RANK-L; assay: AlphaScreen, biotin-hRANK-L / RANK-huFc beads
[3] = biological target: T1, human RANK-L; assay: SPR Biacore 3000, hRANK-L on CM5, 100 nM Nanobody
Method: (§1) Binding kinetics of the humanized versions of Nanobodu RANL13 were also analysed by Surface Plasmon Resonance (Biacore 3000). […] Nanobody binding was assessed at one concentration (100 nM). Each Nanobody was injected for 4 minutes at a flow rate of 45 μl/min to allow binding to chip-bound antigen. Next, binding buffer without Nanobody was sent over the chip at the same flow rate to allow spontaneous dissociation of bound Nanobody.

[4] = biological target: T1, human RANK-L; assay: SPR Biacore 3000, hRANK-L on CM5, 100 nM Nanobody; only indicative (one concentration)
Method: as §1

[5] = biological target: T1, human RANK-L; assay: AlphaScreen, biotin-hRANK-L / RANK-huFc beads; remark: listed apart in the source

Row | IC50 [1] [nM] | IC50 [2] [nM] | koff [3] [s⁻¹] | Kd [4] [nM] | kon [4] [M⁻¹ s⁻¹] | IC50 [5] [nM] | Binder
1 | 0.134 | 0.113 |  |  |  |  | RANKL181biv (VHH, Bivalent Nanobody; also called RANKL18-9GS-RANKL18) EVQLVESGGGLVQAGGSLRLSCAASGRTFSRSAMGWFRQAPGKEREFVGFITGSGGTTYYGESVKGRFTISRDNAQNPVYLQMNSLKPEDTAVYYCGVYRRTYISSTYSESSEYDYWGQGTQVTVSSGGGGSGGGSEVQLVESGGGLVQAGGSLRLSCAASGRTFSRSAMGWFRQAPGKEREFVGFITGSGGTTYYGESVKGRFTISRDNAQNPVYLQMNSLKPEDTAVYYCGVYRRTYISSTYSESSEYDYWGQGTQVTVSS
2 |  |  | 9.94e-05 | 0.232 | 429000 | 0.253 | RANKL18hum5 (VHH) VHH: EVQLVESGGGLVQPGGSLRLSCAASGRTFSRSAMGWFRQAPGKGREFVGFITGSGGTTYYGESVKGRFTISRDNAQNPVYLQMNSLRPEDTAVYYCAVYRRTYISSTYSESSEYDYWGQGTLVTVSS
3 |  |  | 0.00027 | 1.5 |  | 0.572 | RANKL18hum7 (VHH) VHH: EVQLVESGGGLVQPGGSLRLSCAASGRTFSRSAMGWFRQAPGKGREFVGFITGSGGTTYYADSVKGRFTISRDNAQNPLYLQMNSLRPEDTAVYYCAVYRRTYISSTYSESSEYDYWGQGTLVTVSS
4 | 0.03 | 0.072 |  |  |  |  | RANKL94biv (VHH, Bivalent Nanobody; also called RANKL9-15GS-RANKL9) EVQLVESGGGLVQAGGSLRLTCAASGRTFRSYAMGWFRQAPGKEREFVAAINYSGGSTNYADSVKGRFTISRDNAKNTLYLQMNSLEPEDTAVYYCAAGSGYASLSYYSTERAYTYWGQGTQVTVSSGGGGSGGGGSGGGGSEVQLVESGGGLVQAGGSLRLTCAASGRTFRSYAMGWFRQAPGKEREFVAAINYSGGSTNYADSVKGRFTISRDNAKNTLYLQMNSLEPEDTAVYYCAAGSGYASLSYYSTERAYTYWGQGTQVTVSS
5 | 0.032 | 0.07 |  |  |  |  | RANKL92biv (VHH, Bivalent Nanobody; also called RANKL9-20GS-RANKL9) EVQLVESGGGLVQAGGSLRLTCAASGRTFRSYAMGWFRQAPGKEREFVAAINYSGGSTNYADSVKGRFTISRDNAKNTLYLQMNSLEPEDTAVYYCAAGSGYASLSYYSTERAYTYWGQGTQVTVSSGGGGSGGGGSGGGGSGGGGSEVQLVESGGGLVQAGGSLRLTCAASGRTFRSYAMGWFRQAPGKEREFVAAINYSGGSTNYADSVKGRFTISRDNAKNTLYLQMNSLEPEDTAVYYCAAGSGYASLSYYSTERAYTYWGQGTQVTVSS
6 | 0.076 | 0.089 |  |  |  |  | RANKL182biv (VHH, Bivalent Nanobody; also called RANKL18-20GS-RANKL18) EVQLVESGGGLVQAGGSLRLSCAASGRTFSRSAMGWFRQAPGKEREFVGFITGSGGTTYYGESVKGRFTISRDNAQNPVYLQMNSLKPEDTAVYYCGVYRRTYISSTYSESSEYDYWGQGTQVTVSSGGGGSGGGGSGGGGSGGGGSEVQLVESGGGLVQAGGSLRLSCAASGRTFSRSAMGWFRQAPGKEREFVGFITGSGGTTYYGESVKGRFTISRDNAQNPVYLQMNSLKPEDTAVYYCGVYRRTYISSTYSESSEYDYWGQGTQVTVSS
7 | 0.023 | 0.019 |  |  |  |  | RANKL131 (VHH, Bivalent Nanobody; also called RANKL13-9GS-RANKL13) EVQLVESGGGLVQAGGSLRLSCAASGRTFRSYPMGWFRQAPGKEREFVASITGSGGSTYYADSVKGRFTISRDNAKNTVYLQMNSLRPEDTAVYSCAAYIRPDTYLSRDYRKYDYWGQGTQVTVSSGGGGSGGGSEVQLVESGGGLVQAGGSLRLSCAASGRTFRSYPMGWFRQAPGKEREFVASITGSGGSTYYADSVKGRFTISRDNAKNTVYLQMNSLRPEDTAVYSCAAYIRPDTYLSRDYRKYDYWGQGTQVTVSS
8 | 0.038 | 0.05 |  |  |  |  | RANKL18hum6Bi_30 (VHH, Bivalent humanized Nanobody; also called RANKL18Hum6-30GS-RANKL18Hum6) EVQLVESGGGLVQPGGSLRLSCAASGRTFSRSAMGWFRQAPGKGREFVGFITGSGGTTYYADSVKGRFTISRDNAQNPVYLQMNSLRPEDTAVYYCAVYRRTYISSTYSESSEYDYWGQGTLVTVSSGGGGSGGGGSGGGGSGGGGSGGGGSGGGGSEVQLVESGGGLVQPGGSLRLSCAASGRTFSRSAMGWFRQAPGKGREFVGFITGSGGTTYYADSVKGRFTISRDNAQNPVYLQMNSLRPEDTAVYYCAVYRRTYISSTYSESSEYDYWGQGTLVTVSS
9 | 0.09 | 0.153 |  |  |  |  | RANKL91biv (VHH, Bivalent Nanobody; also called RANKL9-9GS-RANKL9) EVQLVESGGGLVQAGGSLRLTCAASGRTFRSYAMGWFRQAPGKEREFVAAINYSGGSTNYADSVKGRFTISRDNAKNTLYLQMNSLEPEDTAVYYCAAGSGYASLSYYSTERAYTYWGQGTQVTVSSGGGGSGGGSEVQLVESGGGLVQAGGSLRLTCAASGRTFRSYAMGWFRQAPGKEREFVAAINYSGGSTNYADSVKGRFTISRDNAKNTLYLQMNSLEPEDTAVYYCAAGSGYASLSYYSTERAYTYWGQGTQVTVSS
10 | 0.048 | 0.066 |  |  |  |  | RANKL93biv (VHH, Bivalent Nanobody; also called RANKL9-30GS-RANKL9) EVQLVESGGGLVQAGGSLRLTCAASGRTFRSYAMGWFRQAPGKEREFVAAINYSGGSTNYADSVKGRFTISRDNAKNTLYLQMNSLEPEDTAVYYCAAGSGYASLSYYSTERAYTYWGQGTQVTVSSGGGGSGGGGSGGGGSGGGGSGGGGSGGGGSEVQLVESGGGLVQAGGSLRLTCAASGRTFRSYAMGWFRQAPGKEREFVAAINYSGGSTNYADSVKGRFTISRDNAKNTLYLQMNSLEPEDTAVYYCAAGSGYASLSYYSTERAYTYWGQGTQVTVSS
11 | 0.038 | 0.1 |  |  |  |  | RANKL18hum6Bi_25 (VHH, Bivalent humanized Nanobody; also called RANKL18Hum6-25GS-RANKL18Hum6) EVQLVESGGGLVQPGGSLRLSCAASGRTFSRSAMGWFRQAPGKGREFVGFITGSGGTTYYADSVKGRFTISRDNAQNPVYLQMNSLRPEDTAVYYCAVYRRTYISSTYSESSEYDYWGQGTLVTVSSGGGGSGGGGSGGGGSGGGGSGGGGSEVQLVESGGGLVQPGGSLRLSCAASGRTFSRSAMGWFRQAPGKGREFVGFITGSGGTTYYADSVKGRFTISRDNAQNPVYLQMNSLRPEDTAVYYCAVYRRTYISSTYSESSEYDYWGQGTLVTVSS
12 | 0.052 | 0.049 |  |  |  |  | RANKL183biv (VHH, Bivalent Nanobody; also called RANKL18-30GS-RANKL18) EVQLVESGGGLVQAGGSLRLSCAASGRTFSRSAMGWFRQAPGKEREFVGFITGSGGTTYYGESVKGRFTISRDNAQNPVYLQMNSLKPEDTAVYYCGVYRRTYISSTYSESSEYDYWGQGTQVTVSSGGGGSGGGGSGGGGSGGGGSGGGGSGGGGSEVQLVESGGGLVQAGGSLRLSCAASGRTFSRSAMGWFRQAPGKEREFVGFITGSGGTTYYGESVKGRFTISRDNAQNPVYLQMNSLKPEDTAVYYCGVYRRTYISSTYSESSEYDYWGQGTQVTVSS
